Among the data in PMC10465345, “Development of a growth-coupled selection platform for directed evolution of heme biosynthetic enzymes in Corynebacterium glutamicum” (Frontiers in Bioengineering and Biotechnology, 2023) are Km, kcat and kcat/Km values, retold here.

The labels stand for the following.
B1: CpfC (coproporphyrin ferrochelatase) (Corynebacterium glutamicum ATCC 13032) (protein)
chain: MNERTSDAFDALLVLSFGGPEGHEEVRPFLENVTHGRGIPPERLDEVAVHYHHFGGISPINALNREIIANVEKELASRDHKLPVYFGNRNWKPFDNEAAEQMADDGVKNALVLATSAWGGYSGCRQYQEDIQGMIKHLESQGQSITFTKLRQFYDHPRFVSTMAQLVQDSYAKLPDELRDEARLVFTAHSIPLTADNAAGTPEDGSLYSTQVKEASALIAEAVGVSDFDVVWQSRSGSPHTPWLEPDIVDHAVELNEKGQKALVVCPVGFISDHMEVIWDLDSELMEEAEKRNMVVERVATVGPTDEFAALVVDLIEEAELKRVIERLGKLPARGSSVNGAPCGDGCCGTAKHKTARVNPNARSAAPAAN
notes: heterologously expressed in E. coli BL21, purified
B2: CpfC (coproporphyrin ferrochelatase) (Corynebacterium glutamicum ATCC 13032; T194S) (protein)
chain: MNERTSDAFDALLVLSFGGPEGHEEVRPFLENVTHGRGIPPERLDEVAVHYHHFGGISPINALNREIIANVEKELASRDHKLPVYFGNRNWKPFDNEAAEQMADDGVKNALVLATSAWGGYSGCRQYQEDIQGMIKHLESQGQSITFTKLRQFYDHPRFVSTMAQLVQDSYAKLPDELRDEARLVFTAHSIPLSADNAAGTPEDGSLYSTQVKEASALIAEAVGVSDFDVVWQSRSGSPHTPWLEPDIVDHAVELNEKGQKALVVCPVGFISDHMEVIWDLDSELMEEAEKRNMVVERVATVGPTDEFAALVVDLIEEAELKRVIERLGKLPARGSSVNGAPCGDGCCGTAKHKTARVNPNARSAAPAAN
notes: as for B1
B3: CpfC (coproporphyrin ferrochelatase) (Corynebacterium glutamicum ATCC 13032; E181G) (protein)
chain: MNERTSDAFDALLVLSFGGPEGHEEVRPFLENVTHGRGIPPERLDEVAVHYHHFGGISPINALNREIIANVEKELASRDHKLPVYFGNRNWKPFDNEAAEQMADDGVKNALVLATSAWGGYSGCRQYQEDIQGMIKHLESQGQSITFTKLRQFYDHPRFVSTMAQLVQDSYAKLPDELRDGARLVFTAHSIPLTADNAAGTPEDGSLYSTQVKEASALIAEAVGVSDFDVVWQSRSGSPHTPWLEPDIVDHAVELNEKGQKALVVCPVGFISDHMEVIWDLDSELMEEAEKRNMVVERVATVGPTDEFAALVVDLIEEAELKRVIERLGKLPARGSSVNGAPCGDGCCGTAKHKTARVNPNARSAAPAAN
notes: as for B1
B4: CpfC (coproporphyrin ferrochelatase) (Corynebacterium glutamicum ATCC 13032; E100D/E31V) (protein)
chain: MNERTSDAFDALLVLSFGGPEGHEEVRPFLVNVTHGRGIPPERLDEVAVHYHHFGGISPINALNREIIANVEKELASRDHKLPVYFGNRNWKPFDNEAADQMADDGVKNALVLATSAWGGYSGCRQYQEDIQGMIKHLESQGQSITFTKLRQFYDHPRFVSTMAQLVQDSYAKLPDELRDEARLVFTAHSIPLTADNAAGTPEDGSLYSTQVKEASALIAEAVGVSDFDVVWQSRSGSPHTPWLEPDIVDHAVELNEKGQKALVVCPVGFISDHMEVIWDLDSELMEEAEKRNMVVERVATVGPTDEFAALVVDLIEEAELKRVIERLGKLPARGSSVNGAPCGDGCCGTAKHKTARVNPNARSAAPAAN
notes: as for B1
B5: CpfC (coproporphyrin ferrochelatase) (Corynebacterium glutamicum ATCC 13032; E100D) (protein)
chain: MNERTSDAFDALLVLSFGGPEGHEEVRPFLENVTHGRGIPPERLDEVAVHYHHFGGISPINALNREIIANVEKELASRDHKLPVYFGNRNWKPFDNEAADQMADDGVKNALVLATSAWGGYSGCRQYQEDIQGMIKHLESQGQSITFTKLRQFYDHPRFVSTMAQLVQDSYAKLPDELRDEARLVFTAHSIPLTADNAAGTPEDGSLYSTQVKEASALIAEAVGVSDFDVVWQSRSGSPHTPWLEPDIVDHAVELNEKGQKALVVCPVGFISDHMEVIWDLDSELMEEAEKRNMVVERVATVGPTDEFAALVVDLIEEAELKRVIERLGKLPARGSSVNGAPCGDGCCGTAKHKTARVNPNARSAAPAAN
notes: as for B1
B6: CpfC (coproporphyrin ferrochelatase) (Corynebacterium glutamicum ATCC 13032; E31V) (protein)
chain: MNERTSDAFDALLVLSFGGPEGHEEVRPFLVNVTHGRGIPPERLDEVAVHYHHFGGISPINALNREIIANVEKELASRDHKLPVYFGNRNWKPFDNEAAEQMADDGVKNALVLATSAWGGYSGCRQYQEDIQGMIKHLESQGQSITFTKLRQFYDHPRFVSTMAQLVQDSYAKLPDELRDEARLVFTAHSIPLTADNAAGTPEDGSLYSTQVKEASALIAEAVGVSDFDVVWQSRSGSPHTPWLEPDIVDHAVELNEKGQKALVVCPVGFISDHMEVIWDLDSELMEEAEKRNMVVERVATVGPTDEFAALVVDLIEEAELKRVIERLGKLPARGSSVNGAPCGDGCCGTAKHKTARVNPNARSAAPAAN
notes: as for B1

Substrate in this data set: CC1=C(CCC(=O)O)c2cc3nc(cc4[nH]c(cc5[nH]c(cc1n2)c(C)c5CCC(=O)O)c(CCC(=O)O)c4C)C(CCC(=O)O)=C3C
Nature of the data set: purified protein. The data set is classed as biochemical, Corynebacterium glutamicum. To be noted: ferrous ammonium sulfate 100 uM, Tris-HCl pH 8.0, 3.3% Tween 20, 5 mM glutathione, 30 °C.
Usually kcat stands for the maximal rate divided by the concentration of active sites. The term kcat/Km denotes the second-order rate constant that governs catalysis at low substrate concentration. B1: the Km was 15.17 ± 1.84 × 10^-3 mM, the turnover number (kcat) turned out to be 0.26 ± 0.09 s⁻¹ and the catalytic efficiency (kcat/Km) was found to be 17430 ± 110 M⁻¹ s⁻¹.

On to B2, for which the Km is reported as 11.63 ± 1.50 × 10^-3 mM, the turnover number (kcat) was determined as 0.32 ± 0.06 s⁻¹ and the specificity constant (kcat/Km) is 27300 ± 4880 M⁻¹ s⁻¹.

Regarding B3, the Km is given as 10.04 ± 1.52 × 10^-3 mM, the kcat stood at 0.3 ± 0.04 s⁻¹ and the kcat/Km was found to be 30600 ± 4310 M⁻¹ s⁻¹.

Take B4: the Km was 9.78 ± 0.82 × 10^-3 mM, the kcat was found to be 0.36 ± 0.04 s⁻¹ and the kcat/Km was 37000 ± 4520 M⁻¹ s⁻¹.

Turning to B5, the Km was 9.40 ± 1.50 × 10^-3 mM, the kcat stood at 0.36 ± 0.06 s⁻¹ and the catalytic efficiency (kcat/Km) was 38100 ± 650 M⁻¹ s⁻¹.

Consider B6, for which the Km is reported as 8.26 ± 0.52 × 10^-3 mM, the turnover number (kcat) came out at 0.43 ± 0.01 s⁻¹ and the kcat/Km amounted to 52900 ± 1400 M⁻¹ s⁻¹.
